Measurements reported in publication PMC9861681, “Preparation, Purification and Characterization of Antibacterial and ACE Inhibitory Peptides from Head Protein Hydrolysate of Kuruma Shrimp, Marsupenaeus japonicus” (Molecules, 2023).

Legend:
[1] = biological target: T1, angiotensin I-converting enzyme (ACE, EC 3.4.15.1) from rabbit lung (rabbit, UniProt P12822 34-1310); test: cell-based or functional assay
T1 sequence (looked up): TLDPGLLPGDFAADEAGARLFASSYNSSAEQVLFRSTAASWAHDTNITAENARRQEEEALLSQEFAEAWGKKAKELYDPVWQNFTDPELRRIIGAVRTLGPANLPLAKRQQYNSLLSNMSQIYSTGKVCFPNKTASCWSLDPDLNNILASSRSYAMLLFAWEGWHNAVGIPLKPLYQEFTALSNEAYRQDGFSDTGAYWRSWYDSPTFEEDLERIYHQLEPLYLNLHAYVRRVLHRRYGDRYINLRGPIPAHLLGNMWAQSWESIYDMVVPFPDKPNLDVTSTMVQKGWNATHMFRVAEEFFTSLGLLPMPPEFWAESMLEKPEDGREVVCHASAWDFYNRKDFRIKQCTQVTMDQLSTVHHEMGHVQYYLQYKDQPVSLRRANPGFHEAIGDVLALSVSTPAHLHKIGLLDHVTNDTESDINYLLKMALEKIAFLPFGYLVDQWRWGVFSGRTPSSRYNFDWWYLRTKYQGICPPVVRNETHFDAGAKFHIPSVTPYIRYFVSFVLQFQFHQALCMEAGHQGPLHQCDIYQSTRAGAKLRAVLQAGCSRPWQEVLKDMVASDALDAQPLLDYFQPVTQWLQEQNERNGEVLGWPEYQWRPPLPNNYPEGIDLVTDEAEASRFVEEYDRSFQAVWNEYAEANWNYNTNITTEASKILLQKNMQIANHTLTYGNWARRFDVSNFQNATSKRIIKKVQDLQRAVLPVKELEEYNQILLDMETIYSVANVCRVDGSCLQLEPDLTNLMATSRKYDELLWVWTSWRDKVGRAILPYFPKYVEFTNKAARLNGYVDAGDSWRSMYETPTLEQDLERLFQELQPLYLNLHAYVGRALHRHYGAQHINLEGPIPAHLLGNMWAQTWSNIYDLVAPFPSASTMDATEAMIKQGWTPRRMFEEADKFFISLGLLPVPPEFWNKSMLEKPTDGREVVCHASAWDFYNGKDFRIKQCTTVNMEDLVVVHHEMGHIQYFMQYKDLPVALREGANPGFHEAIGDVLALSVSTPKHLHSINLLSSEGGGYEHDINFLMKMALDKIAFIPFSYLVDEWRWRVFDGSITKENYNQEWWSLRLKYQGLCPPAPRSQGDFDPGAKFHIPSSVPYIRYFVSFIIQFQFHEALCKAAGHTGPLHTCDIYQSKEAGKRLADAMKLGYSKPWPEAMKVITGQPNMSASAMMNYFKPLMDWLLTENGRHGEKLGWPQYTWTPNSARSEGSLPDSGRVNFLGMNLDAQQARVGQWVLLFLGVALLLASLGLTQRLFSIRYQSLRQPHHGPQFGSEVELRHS

[2] = biological target: T1, angiotensin I-converting enzyme (ACE, …); test: cell-based or functional assay; remark: listed apart in the source

B1: ACE inhibitory peptide Ala-Arg-Leu/Ile (ARL/I) (peptide)
chain: ARL
- IC50 of ACE inhibitory activity, calculated from the molecular mass of ARL/I and Table 2 [1]: 126 µM
- IC50 of ACE inhibitory activity (HHL substrate, hippuric acid at 228 nM) [2]: 45 µg/mL
